# Target: wt human lysyl-tRNA synthetase (h-LysRS, cytosolic) (human) (UniProt Q15046)
# Test: EMSA
# Settings: 1 mM Mg2+, Kd values printed only in Fig. 4C, EMSA: 20 mM HEPES pH 7.4, 60 mM NaCl, 10 mM KCl, 1 mM MgCl2, 400 uM DTT, 8% glycerol, room temperature 30 min, 37.5 nM tRNA, 0-5 uM LysRS, Hill fit, SYBR Gold …
# wt human lysyl-tRNA synthetase (h-LysRS, cytosolic) (human), sequence (Q15046 whole entry): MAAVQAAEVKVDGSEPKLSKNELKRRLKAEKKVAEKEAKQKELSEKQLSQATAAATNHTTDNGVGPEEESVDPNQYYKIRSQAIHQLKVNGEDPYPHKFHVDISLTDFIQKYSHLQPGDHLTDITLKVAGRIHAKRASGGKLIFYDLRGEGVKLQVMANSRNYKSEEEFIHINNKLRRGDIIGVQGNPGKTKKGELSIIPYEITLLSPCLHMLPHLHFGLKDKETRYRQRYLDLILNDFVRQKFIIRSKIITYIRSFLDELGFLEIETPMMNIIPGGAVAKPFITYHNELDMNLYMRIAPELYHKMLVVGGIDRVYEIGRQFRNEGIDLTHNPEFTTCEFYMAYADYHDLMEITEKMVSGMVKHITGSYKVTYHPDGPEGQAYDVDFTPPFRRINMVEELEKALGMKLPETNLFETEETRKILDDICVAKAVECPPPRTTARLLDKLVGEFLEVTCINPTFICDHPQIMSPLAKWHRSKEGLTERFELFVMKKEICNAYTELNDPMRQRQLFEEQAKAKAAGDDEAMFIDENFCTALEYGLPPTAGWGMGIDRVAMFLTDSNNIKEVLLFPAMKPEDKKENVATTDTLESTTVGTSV
substance,measurement,setting,value
IVT unmodified tRNALys3,binding signal,scale: fold lower affinity than modified tRNALys3,2.5
cellular fully modified tRNALys3,binding signal (fold higher affinity than IVT tRNALys3),"native modifications, named: m2G10, D20, S34 (mcm5s2U), R37 (ms2t6A), D47, psi55, 9 types, 14 modified nucleotides modeled",2.5
